Data published in FireProtDB (doi:10.1021/bi026827i).

Details: Saccharomyces cerevisiae (strain ATCC 204508 / S288c); pH 7; 25 °C; GdnHCl; CD; Tris 20 mM; NaCl 40 mM; structure 1YCC

Cytochrome c isoform 1 K60Q|K61Q, P00044 K60Q K61Q, sequence (P00044 whole entry K60Q/K61Q, canonical isoform): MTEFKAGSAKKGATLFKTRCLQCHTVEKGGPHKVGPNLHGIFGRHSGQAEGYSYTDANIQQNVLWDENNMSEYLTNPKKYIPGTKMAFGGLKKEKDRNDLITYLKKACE
Cytochrome c isoform 1 K10Q|K11Q, P00044 K10Q K11Q, sequence (P00044 whole entry K10Q/K11Q, canonical isoform): as the sequence (P00044 whole entry K60Q/K61Q, canonical isoform) above, with K10Q, K11Q, Q60K, Q61K counted along it
Cytochrome c isoform 1 K17Q, P00044, sequence (P00044 whole entry K17Q, canonical isoform): as the sequence (P00044 whole entry K60Q/K61Q, canonical isoform) above, with K17Q, Q60K, Q61K counted along it
Cytochrome c isoform 1 K33Q, P00044, sequence (P00044 whole entry K33Q, canonical isoform): as the sequence (P00044 whole entry K60Q/K61Q, canonical isoform) above, with K33Q, Q60K, Q61K counted along it
Cytochrome c isoform 1 K28Q, P00044, sequence (P00044 whole entry K28Q, canonical isoform): as the sequence (P00044 whole entry K60Q/K61Q, canonical isoform) above, with K28Q, Q60K, Q61K counted along it

With Cytochrome c isoform 1 K33Q, P00044 as the substance, how does the denaturant m value read?
Its denaturant m value is 3.7 kcal/mol/M.

And the “denaturant midpoint (higher = more stable)” value (shortened to “denaturant midpoint”)?
Its value is 1.09 M.

And the unfolding free energy?
The unfolding free energy was 4.04 kcal/mol.

With “Cytochrome c isoform 1 K60Q|K61Q, P00044 K60Q K61Q” as the substance, how does the denaturant m value read?
Its denaturant m value is 3.06 kcal/mol/M.

What about the “denaturant midpoint” value of the same substance?
The value was 0.99 M.

What about the unfolding free energy of the same substance?
The unfolding free energy was 3.04 kcal/mol.

For “Cytochrome c isoform 1 K10Q|K11Q, P00044 K10Q K11Q”, which denaturant m value is on record?
The denaturant m value was 3.06 kcal/mol/M.

What about the “denaturant midpoint” value of the same substance?
The value was 1.05 M.

And the unfolding free energy?
Its unfolding free energy is 3.2 kcal/mol.

Which results are given for Cytochrome c isoform 1 K28Q, P00044?
denaturant m value: 3.2 kcal/mol/M; denaturant midpoint (higher = more stable): 0.94 M; unfolding free energy: 2.96 kcal/mol

Which results are given for Cytochrome c isoform 1 K17Q, P00044?
denaturant m value: 5.33 kcal/mol/M; denaturant midpoint (higher = more stable): 0.64 M; unfolding free energy: 3.37 kcal/mol
